Results on 1 molecule are retold here after patent US20200190171A1 (FAIRBANKS PHARMACEUTICALS, published 2020).

The target in test [1] is T1, human Follistatin-like-3 (FSTL3) protein, 6-His tagged (human, UniProt O95633 27-263, limits assumed).
T1 construct: Made in-house as a secreted protein from stably transfected 293 cells; also called hFSTL3; human FSTL3; not shown: 6-His tag
T1 sequence (looked up): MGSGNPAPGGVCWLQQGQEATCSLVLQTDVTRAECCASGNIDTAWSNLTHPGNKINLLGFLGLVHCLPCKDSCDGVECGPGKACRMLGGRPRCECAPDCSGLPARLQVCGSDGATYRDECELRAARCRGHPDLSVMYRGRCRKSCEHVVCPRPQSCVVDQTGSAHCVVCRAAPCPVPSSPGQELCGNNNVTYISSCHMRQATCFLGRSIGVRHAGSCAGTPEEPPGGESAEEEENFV
Kind of test: Western blot. The protocol:
(§1) Secondary antibody (donkey anti-mouse IgG-Horse Radish Peroxidase label) was purchased from Jackson Immuno Research in West Grove Pa. Human FSTL3 was produced by Fairbanks Pharmaceuticals by cloning the human FSTL3 cDNA into an expression plasmid containing a 6-His tag. 293 cells were transfected with this plasmid and stable colonies selected. Cells were grown for 7-14 days, medium collected, and FSTL3 was purified on Nickel-Sepharose-Sephadex Beads (GE Healthcare Life Sciences, Pittsburgh Pa. Ligands: activin A (Cat No:338-AC-050), activin B (Cat No:659-AB-005), and MSTN (Cat No:788-68-010) were purchased from R&D Systems (Minneapolis, Minn.). GDF11 (Cat No:TP723130), was purchased from Origene (Rockville Md.)
(§2) Direct binding studies were conducted by performing Western blot, a technique well known in the art. Pre-determined doses of human FSTL3 (hFSTL3) or mouse FSTL3 (mFSTL3), that are easily detectable at the end of experimentation, were loaded onto SDS gels (10% NuPage gels). After electrophoresis, proteins were transferred to PVDF membranes and then tested with the selected and purified anti-hFSTL3 antibodies from FIG. 3.
A general note: In western blotting, separated proteins are transferred to a membrane and probed.

Test [2] deals with T2, mouse FSTL3 (mouse, UniProt Q9EQC7 24-256, limits assumed).
T2 construct: also called mFSTL3
T2 sequence (looked up): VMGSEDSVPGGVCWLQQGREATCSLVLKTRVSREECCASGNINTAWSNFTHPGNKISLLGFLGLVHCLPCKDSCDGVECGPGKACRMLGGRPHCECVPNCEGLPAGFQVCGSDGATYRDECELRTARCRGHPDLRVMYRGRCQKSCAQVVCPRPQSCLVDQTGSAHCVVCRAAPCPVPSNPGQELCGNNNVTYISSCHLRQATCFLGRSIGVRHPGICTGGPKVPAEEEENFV
Kind of test: Western blot. The protocol: as §1, §2

B1: FP-102 anti-hFSTL3 monoclonal antibody (antibody, V domains shown)
VH: QVKLQQPGAELVKPGASVKLSCKASGYTFTSYWMHWVNQRPGQGLEWIGEINPGNGRTNYNEKFKSKATLTVDKSSSTAYMQLSSLTSEDSAVYFCARWLLPRGPMDYWGQGTSVTVSS
VL: DIVLTQSQKFMSTSVGDRVSVTCKASQNVGTNVAWYQQKPGQSPQGLIYSASYRYSGVPDRFTGSGSGTDFTLTISNVQSEDLAEYFCQQYNSYPLTFGAGTKLELKR
notes: Murine monoclonal from Balb-C mice; also called clone 33
Consider B1, for which the binding result in test [1] and in test [2] was “binds” each time.
